US20160158369A1, “PHARMACEUTICAL COMPOSITION FOR RESPIRATORY ADMINISTRATION” (SEIKAGAKU CORPORATION, priority 2013, published 2016)
Several values for one entry are separate records, joined by “and”; a condition that tells them apart may be missing. Equal entries are not always repeated.

Test: Drug dissociation test: polysaccharide derivative in buffer solution, 36°C, 1 week, HPLC
Format: physicochemical
Description: In the examples relating to drug dissociation test, the drug dissociation ratio was evaluated as described below.
Sodium dihydrogen phosphate dihydrate (780 mg (5.0 mmol)) was dissolved in 500 mL of distilled water to give a liquid A. Separately, disodium hydrogen phosphate dodecahydrate (1.79 g (5.0 mmol)) was dissolved in 500 mL of distilled water to give a liquid B. By mixing the liquid A and liquid B at ratio of 2:3, a phosphate buffer solution of pH 7.5 was prepared.
0.62 g (10 mmol) of boric acid and 0.75 g (10 mmol) of potassium chloride were weighed and dissolved in 500 mL of distilled water to give a liquid C. Separately, by diluting 0.1 N sodium hydroxide solution with distilled water (×10 dilution), a liquid D was prepared.
50 mL of the liquid C and 7 mL of the liquid D were added to a 100 mL mess flask, and according to dilution to 100 mL with distilled water, a borate buffer solution of pH 8.0 was prepared. Furthermore, 50 mL of the liquid C and 40 mL of the liquid D were added to a 100 mL mess flask, and according to mess-up to 100 mL with distilled water, a borate buffer solution of pH 9.0 was prepared.
Each polysaccharide derivative obtained from above was dissolved in a buffer solution at each pH so as to have a concentration of 5 mg/10 mL, and heated for 1 week in an incubator at 36° C. Then, the drug dissociation ratio during the incubation was evaluated every 24 hours by liquid chromatography (HPLC).
The evaluation was performed by measuring the ratio between the drug amount remained in a polysaccharide derivative and the dissociated drug amount according to use of a size exclusion chromatography column (manufactured by TOSOH, TSKgel α-6000, 7.8 mmI.D.×30 cm).
Detailed conditions for the liquid chromatography are as follows.
Analysis time: 40 minutes
Solution for elution: acetonitrile (for HPLC):physiological saline=1:2
Detector: UV detector (240 nm)

Substance | Dissociation ratio (%/day) (pH 7.4, 36°C) | Dissociation ratio (%/day) (pH 8.0, 36°C) | drug dissociation ratio (pH 8.0, 36°C, day 0) | drug dissociation ratio (pH 8.0, 36°C, day 1) | drug dissociation ratio (pH 8.0, 36°C, day 2) | drug dissociation ratio (pH 8.0, 36°C, day 3) | drug dissociation ratio (pH 8.0, 36°C, day 4) | drug dissociation ratio (pH 8.0, 36°C, day 5) | drug dissociation ratio (pH 8.0, 36°C, day 6) | drug dissociation ratio (pH 8.0, 36°C, day 7) | drug dissociation ratio (pH 7.4, 36°C, day 0) | drug dissociation ratio (pH 7.4, 36°C, day 1) | drug dissociation ratio (pH 7.4, 36°C, day 2) | drug dissociation ratio (pH 7.4, 36°C, day 3) | drug dissociation ratio (pH 7.4, 36°C, day 4) | drug dissociation ratio (pH 7.4, 36°C, day 5) | drug dissociation ratio (pH 7.4, 36°C, day 6) | drug dissociation ratio (pH 7.4, 36°C, day 7) | other results
Carboxymethyl Cellulose (500) Introduced with 21-β-Alanyl-Budesonide [Compound xxa] | 2.8 %/day and 2.6 %/day | 5.7 %/day and 5.5 %/day | 2.7% | 9.9% | 16.4% | 22.1% | 27.1% | 31.7% | 35.9% | 39.6% | – | – | – | – | – | – | – | – | Dissociation ratio (%/day) (pH 7.5, 36°C): 2.8 %/day; drug dissociation ratio (pH 7.5, 36°C, day 0): 2.0%; drug dissociation ratio (pH 7.5, 36°C, day 1): 4.8%; drug dissociation ratio (pH 7.5, 36°C, day 2): 7.4%; drug dissociation ratio (pH 7.5, 36°C, day 3): 10.0%; drug dissociation ratio (pH 7.5, 36°C, day 4): 12.6%; drug dissociation ratio (pH 7.5, 36°C, day 5): 15.0%; drug dissociation ratio (pH 7.5, 36°C, day 6): 17.4%; drug dissociation ratio (pH 7.5, 36°C, day 7): 19.8%
Chondroitin Sulfate Introduced with 11-(2-Fluoro-β-Alanyl)-Propionic Acid Fluticasone [Compound viii] | 3.1 %/day | 10.1 %/day | 0.3% | 14.8% | 26.3% | 27.1% | 29.8% | 64.5% | 47.4% | 70.9% | 0.1% | 7.9% | 4.9% | 12.7% | 8.4% | 15.2% | 14.3% | 21.8% | –
Chondroitin Sulfate Introduced with 11-Glycyl-Propionic Acid Fluticasone [Compound xvii] | – | – | – | – | – | – | – | – | – | – | – | – | – | – | – | – | – | – | Dissociation ratio (%/day) (pH 7.4, phosphate buffer solution/acetonitrile (1:1), 36°C): 0.4 %/day; drug dissociation ratio (pH 7.4, phosphate buffer solution/acetonitrile (1:1), 36°C, day 0): 0.0%; drug dissociation ratio (pH 7.4, phosphate buffer solution/acetonitrile (1:1), 36°C, day 1): 0.3%; drug dissociation ratio (pH 7.4, phosphate buffer solution/acetonitrile (1:1), 36°C, day 2): 0.7%; drug dissociation ratio (pH 7.4, phosphate buffer solution/acetonitrile (1:1), 36°C, day 3): 1.3%; drug dissociation ratio (pH 7.4, phosphate buffer solution/acetonitrile (1:1), 36°C, day 4): 1.9%; drug dissociation ratio (pH 7.4, phosphate buffer solution/acetonitrile (1:1), 36°C, day 5): 2.3%; drug dissociation ratio (pH 7.4, phosphate buffer solution/acetonitrile (1:1), 36°C, day 6): 2.5%; drug dissociation ratio (pH 7.4, phosphate buffer solution/acetonitrile (1:1), 36°C, day 7): 2.9%; Dissociation ratio (%/day) (pH 8.0, borate buffer solution/acetonitrile (1:1), 36°C): 3.3 %/day; drug dissociation ratio (pH 8.0, borate buffer solution/acetonitrile (1:1), 36°C, day 0): 0.0%; drug dissociation ratio (pH 8.0, borate buffer solution/acetonitrile (1:1), 36°C, day 1): 4.6%; drug dissociation ratio (pH 8.0, borate buffer solution/acetonitrile (1:1), 36°C, day 2): 10.1%; drug dissociation ratio (pH 8.0, borate buffer solution/acetonitrile (1:1), 36°C, day 3): 14.1%; drug dissociation ratio (pH 8.0, borate buffer solution/acetonitrile (1:1), 36°C, day 4): 17.8%; drug dissociation ratio (pH 8.0, borate buffer solution/acetonitrile (1:1), 36°C, day 5): 18.9%; drug dissociation ratio (pH 8.0, borate buffer solution/acetonitrile (1:1), 36°C, day 6): 20.0%; drug dissociation ratio (pH 8.0, borate buffer solution/acetonitrile (1:1), 36°C, day 7): 22.8%
Chondroitin Sulfate Introduced with 11-β-Alanyl-Propionic Acid Fluticasone [Compound vii] | 0.1 %/day | 0.2 %/day | 0.0% | 0.3% | 0.6% | 0.7% | 0.7% | 1.0% | 1.0% | 1.1% | 0.0% | 0.0% | 0.0% | 0.2% | 0.4% | 0.4% | 0.4% | 0.4% | –
Chondroitin Sulfate Introduced with 21-β-Alanyl-Budesonide (10 kDa) [Compound vc] | 1.2 %/day | 2.0 %/day | 0.1% | 1.9% | 2.4% | 3.9% | 7.6% | 9.7% | 11.2% | 14.0% | 0.4% | 1.6% | 2.8% | 3.7% | 4.8% | 5.3% | 6.8% | 8.5% | –
Chondroitin Sulfate Introduced with 21-β-Alanyl-Budesonide (20 kDa) [Compound vb] | 0.9 %/day | 1.5 %/day | 0.2% | 1.2% | 1.7% | 2.9% | 5.5% | 7.6% | 8.9% | 10.8% | 0.3% | 1.2% | 2.4% | 3.0% | 3.6% | 4.0% | 5.1% | 6.4% | –
Chondroitin Sulfate Introduced with Seratrodast [Compound xxiii] | 0.1 %/day | 0.2 %/day | 0.0% | 0.2% | 0.4% | 0.6% | 0.7% | 0.9% | 1.1% | 1.3% | 0.0% | 0.0% | 0.2% | 0.3% | 0.3% | 0.4% | 0.5% | 0.6% | –
Chondroitin Sulfate Introduced with β-Alanyl-Proxyphylline [Compound xxiia] | 0.2 %/day | 0.4 %/day | 0.0% | 0.0% | 0.0% | 1.2% | 1.6% | 2.0% | 2.3% | 2.6% | 0.0% | 0.0% | 0.0% | 0.0% | 0.0% | 0.0% | 0.8% | 1.3% | –
Hyaluronic Acid Introduced with 21-β-Alanyl-Budesonide (390 kDa) [Compound vib] | 4.9 %/day | 7.9 %/day | 0.4% | 12.8% | 16.1% | 23.2% | 36.7% | 44.1% | 50.2% | 55.3% | 3.3% | 9.3% | 16.3% | 18.4% | 22.3% | 25.2% | 30.7% | 34.6% | –
